# From PMC7287080, “Distinct pre-initiation steps in human mitochondrial translation” (Nature Communications, 2020)
# B1: recombinant human mtIF2 (amino acids 38-727) (natural protein)
# chain: SSAYPVWTAQLCAWPWPTDVLTGAALSQYRLLVTKKEEGPWKSQLSSTKSKKVVEVWIGMTIEELARAMEKNTDYVYEALLNTDIDIDSLEADSHLDEVWIKEVITKAGMKLKWSKLKQDKVRKNKDAVRRPQADPALLTPRSPVVTIMGHVDHGKTTLLDKFRKTQVAAVETGGITQHIGAFLVSLPSGEKITFLDTPGHAAFSAMRARGAQVTDIVVLVVAADDGVMKQTVESIQHAKDAQVPIILAVNKCDKAEADPEKVKKELLAYDVVCEDYGGDVQAVPVSALTGDNLMALAEATVALAEMLELKADPNGPVEGTVIESFTDKGRGLVTTAIIQRGTLRKGSVLVAGKCWAKVRLMFDENGKTIDEAYPSMPVGITGWRDLPSAGEEILEVESEPRAREVVDWRKYEQEQEKGQEDLKIIEEKRKEHKEAHQKAREKYGHLLWKKRSILRFLERKEQIPLKPKEKRERDSNVLSVIIKGDVDGSVEAILNIIDTYDASHECELELVHFGVGDVSANDVNLAETFDGVIYGFNVNAGNVIQQSAAKKGVKIKLHKIIYRLVEDLQEELSSRLPCAVEEHPVGEASILATFSVTEGKKKVPVAGCRVQKGQLEKQKKFKLTRNGHVIWKGSLTSLKHHKDDISIVKTGMDCGLSLDEDNMEFQVGDRIVCYEEKQIQAKTSWDPGF
# notes: mitochondrial translation initiation factor 2 (mtIF2), human, mature form, amino acids 38-727, codon-optimised construct in pET-24b; also called mtIF2-GDPNP; source: E. coli Rosetta 2, purified (His-Select Ni2+ resin, Superdex 200)
# Biological target: mitoribosomal protein uS12m (human (endogenous in HEK293T), UniProt O15235 30-138)
# Assay: cryo-EM structure; recombinant mtIF2 (1 µM) preincubated with GDPNP (2.5 mM), added to the mtIF3-bound mtSSU eluate with fMet-tRNA (1 µM) and MT-CO2 mRNA (1 µM), 30 min at room temperature, buffer A (25 mM HEPES-KOH pH 7.5, 5.0 mM Mg(OAc)2, 100 mM KCl, 0.05% β-DDM)
# Conditions: both partners purified
binder,measurement,value
B1,binding result,binds
